Values quoted from earlier work as cited in PMC11988805.

Columns and labels:
[1] = biological target: stapled BH3 peptide BH3 (Homo sapiens) (UniProt P55957)
[2] = biological target: unstapled BH3 peptide BH3 (Homo sapiens) (UniProt P55957)

In the case of Bcl-2 (from UniProt P10415), the Kd [1] is given as 0.0388 µM and the Kd [2] is given as 0.269 µM.
